We go through 6 molecules from patent publication US20240368233A1 (University of Washington, published 2024).

One data set deals with T1, LHD274 B62.
T1 construct: also called LHD274 B DHR62 C
T1 single chain, LHD274 chain B fused to DHR62: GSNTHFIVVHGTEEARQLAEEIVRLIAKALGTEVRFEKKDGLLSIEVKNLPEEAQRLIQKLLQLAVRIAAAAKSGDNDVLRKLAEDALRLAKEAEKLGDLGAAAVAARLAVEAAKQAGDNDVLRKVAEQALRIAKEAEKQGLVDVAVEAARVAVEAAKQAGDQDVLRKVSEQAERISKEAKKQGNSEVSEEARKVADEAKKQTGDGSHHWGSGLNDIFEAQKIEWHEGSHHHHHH
Kind of data set: SEC binding assay (Superdex 200, normalised A230) of A, B and the mixture AB. How it is done: (§1) Complexes and individual components were diluted in 20 mM Tris pH 8.0, 100 mM NaCl. After o/n equilibration of the mixtures at room temperature or 4 degrees C., 500 ul of sample was injected onto a Superdex™ 200 10/300 increase GL (dimers, linear assemblies) or Superose™ 6 increase 10/300 GL (symmetric assemblies) (all columns from GE healthcare) using the absorbance at 230 nm or 473 nm (for GFP tagged components) as read-out. Dimers were mixed at monomer concentrations of 5 μM or higher. Trimer and ABCD tetramer mixtures contained 5 μM of the bivalent connector, and 7.5 μM of each terminal cap (lower absolute concentrations with the same ratios were used for some trimers). ABCA tetramer mixtures contained 5 μM per bivalent connector and 15 μM terminal cap. The hexamer mixture contained 3 μM of components C and D, 3.6 μM of B and E, and 4.4 μM of A and F. The branched assembly shown in FIG. 4A contained 2.8 μM of the trivalent connector and 4 μM of each cap. For the exchange experiment shown in FIG. 5A, the ABC trimer was preincubated at concentrations of 6 μM B and 9 μM each of A and C. C′ was then added to reach a final concentration of 2 μM B, 3 μM each of A and C, and 6 μM C′.

A further data set has as its target T2, 274B53.
T2 construct: also called LHD274B DHR53 stop
T2 chain: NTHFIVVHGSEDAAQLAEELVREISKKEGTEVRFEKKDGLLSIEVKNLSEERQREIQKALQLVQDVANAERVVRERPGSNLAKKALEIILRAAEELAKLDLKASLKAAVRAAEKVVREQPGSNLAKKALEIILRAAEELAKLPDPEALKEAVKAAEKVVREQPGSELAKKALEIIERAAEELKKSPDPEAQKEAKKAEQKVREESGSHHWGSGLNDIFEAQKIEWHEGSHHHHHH
The data set is described as above. How it is done:
as §1

The target of a further data set is T3, DFX.
T3 construct: Bivalent connector
T3 chain: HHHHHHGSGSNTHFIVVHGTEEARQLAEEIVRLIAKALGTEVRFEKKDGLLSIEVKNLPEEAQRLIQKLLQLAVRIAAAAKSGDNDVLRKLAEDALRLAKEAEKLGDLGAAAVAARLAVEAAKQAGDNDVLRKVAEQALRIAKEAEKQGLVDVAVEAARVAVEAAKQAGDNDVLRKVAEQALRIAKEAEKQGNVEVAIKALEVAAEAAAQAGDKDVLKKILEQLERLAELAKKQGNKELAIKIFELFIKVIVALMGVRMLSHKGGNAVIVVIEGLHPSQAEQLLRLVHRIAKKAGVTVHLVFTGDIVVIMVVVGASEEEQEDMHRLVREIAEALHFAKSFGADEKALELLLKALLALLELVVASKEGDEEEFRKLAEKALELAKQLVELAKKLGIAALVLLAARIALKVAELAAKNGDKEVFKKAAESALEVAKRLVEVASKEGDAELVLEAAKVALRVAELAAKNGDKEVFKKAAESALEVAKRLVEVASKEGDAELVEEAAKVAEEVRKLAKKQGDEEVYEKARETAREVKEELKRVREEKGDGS
Briefly: negative-stain EM of the heterotrimer; components named in the legend. The method, then:
(§2) SEC peak fractions were concentrated prior to negative stain EM screening. Samples were then immediately diluted 5 to 150 times in TBS buffer (25 mM Tris pH 8.0, 25 mM NaCl) depending on sample concentration. A final volume of 5 μL was applied to negatively glow discharged, carbon-coated 400-mesh copper grids (01844-F, TedPella, Inc.), then washed with Milli-Q™ Water and stained using 0.75% uranyl formate as previously described (53). Air-dried grids were imaged on a FEI Talos L120C TEM (FEI Thermo Scientific, Hillsboro, OR) equipped with a 4K×4K Gatan OneView™ camera at a magnification of 57,000× and pixel size of 2.51. Micrographs were imported into CisTEM software or cryoSPARC™ software and a circular blob picker was used to select particles which were then subjected to 2D classification. Ab initio reconstruction and homogeneous refinement in Cn symmetry were used to generate 3D electron density maps (54, 55).

Data set [1] concerns the molecule itself. Kind of data set: SEC titration of the protomer alone at several injection concentrations (Superdex 200, normalised A230); self-association.
A further data set addresses T4, TF10.
T4 construct: Trivalent connector
T4 chain: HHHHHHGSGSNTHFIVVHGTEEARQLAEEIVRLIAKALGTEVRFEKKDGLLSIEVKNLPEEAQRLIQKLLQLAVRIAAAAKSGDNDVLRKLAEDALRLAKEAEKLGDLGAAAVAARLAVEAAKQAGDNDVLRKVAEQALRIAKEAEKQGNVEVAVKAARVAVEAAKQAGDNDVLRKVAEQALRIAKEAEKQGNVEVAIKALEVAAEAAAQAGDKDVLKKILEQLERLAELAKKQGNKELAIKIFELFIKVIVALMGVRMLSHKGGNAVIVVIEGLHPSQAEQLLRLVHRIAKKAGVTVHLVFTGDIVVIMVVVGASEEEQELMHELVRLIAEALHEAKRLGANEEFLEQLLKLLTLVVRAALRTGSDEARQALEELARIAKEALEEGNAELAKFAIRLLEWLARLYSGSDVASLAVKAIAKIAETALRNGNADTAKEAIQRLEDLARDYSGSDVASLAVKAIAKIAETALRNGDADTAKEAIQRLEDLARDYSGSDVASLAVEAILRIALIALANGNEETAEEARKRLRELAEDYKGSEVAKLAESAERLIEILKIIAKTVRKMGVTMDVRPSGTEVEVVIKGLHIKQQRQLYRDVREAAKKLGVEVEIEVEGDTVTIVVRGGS
Briefly: SEC (A230) of A---, -BCD and ABCD and negative-stain EM; components named in the legend of FIG. 17A, which paragraph 104 ties to FIG. 4A. How it is done: as §1
as §2, with “Ab initio reconstruction and homogeneous refinement in Cn symmetry were used to generate 3D electron density maps (54, 55).” left out

The target in the next data set is T5, 101B62.
T5 construct: also called LHD101B62
T5 chain: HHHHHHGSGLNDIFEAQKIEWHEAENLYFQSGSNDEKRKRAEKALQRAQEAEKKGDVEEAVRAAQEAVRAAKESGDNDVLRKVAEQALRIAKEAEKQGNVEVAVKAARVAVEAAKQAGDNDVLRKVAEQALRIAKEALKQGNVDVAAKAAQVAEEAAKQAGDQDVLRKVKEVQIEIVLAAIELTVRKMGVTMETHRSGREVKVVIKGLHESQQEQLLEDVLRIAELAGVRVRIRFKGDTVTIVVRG
Kind of data set: SEC of mixed components; linear tetramer listed in Table 6, neighbours in the chain. The method, then:
as §1

The target of the next data set is T6, DFA0.
T6 construct: Bivalent connector
T6 chain: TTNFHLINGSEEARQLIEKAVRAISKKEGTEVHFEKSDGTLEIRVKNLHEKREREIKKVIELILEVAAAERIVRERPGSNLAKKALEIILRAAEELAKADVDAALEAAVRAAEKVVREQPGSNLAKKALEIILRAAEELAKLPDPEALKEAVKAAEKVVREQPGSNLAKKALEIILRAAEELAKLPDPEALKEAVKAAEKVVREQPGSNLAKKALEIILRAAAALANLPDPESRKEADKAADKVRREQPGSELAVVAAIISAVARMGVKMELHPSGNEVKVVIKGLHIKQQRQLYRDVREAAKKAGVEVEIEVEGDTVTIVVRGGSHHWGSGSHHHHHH
Briefly: SEC of mixed components; trimer listed in Table 6. The method, then: as §1

A further data set addresses T7, DF275A-1.
T7 construct: Bivalent connector
T7 chain: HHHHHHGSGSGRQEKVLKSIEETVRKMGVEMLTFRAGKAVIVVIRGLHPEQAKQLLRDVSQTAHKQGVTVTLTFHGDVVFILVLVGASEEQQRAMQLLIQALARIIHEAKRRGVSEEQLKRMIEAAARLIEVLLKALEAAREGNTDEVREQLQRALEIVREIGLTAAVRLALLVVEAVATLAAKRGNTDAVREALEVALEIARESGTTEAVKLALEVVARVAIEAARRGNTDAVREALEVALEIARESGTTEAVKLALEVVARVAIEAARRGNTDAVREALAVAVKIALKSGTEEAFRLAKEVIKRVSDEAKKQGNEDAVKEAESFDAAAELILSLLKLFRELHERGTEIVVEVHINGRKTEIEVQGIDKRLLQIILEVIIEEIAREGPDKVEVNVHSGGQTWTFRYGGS
Kind of data set: SEC of mixed components; trimer listed in Table 6. How it is done:
as §1

B1: LHD274 A64 (designed binder)
single chain, LHD274 chain A fused to DHR64: GSTTNFHLINGSEEARQLIQKAVEAISKKEGTEVHFEKSDGTLEIRVKNLHPRQEDLIKKFIEALLLALVAKGELEQAEKEGDAEVALRAVEKVVRVAELLLRLAKEAGSEEALKAALEIAEQAARLAKRVLELAEKQGDAEVALRAVELVVRVAELLLRIAKESGSEEALERALRVAEEAARLAKRVLELAEKQGDAEVARRAVELVKRVAELLERIARESGSEEAKERAERVREEARELQERVKELREREGDGSHHWGSGLNDIFEAQKIEWHEGSHHHHHH
As to B1, the binding result with LHD274 B62 and with 274B53 was “binds” in each case.

B2: 317B (designed binder)
chain: GGSDVEWRFTNVSEEEQEKLARFVLQVAQLAGTQVIFTTRPGELRIRVHNLDELLALAIELYAQGLRLGDKHVQHLAKKAIEAILRGDRKLARFLLEAARAMSRATERPGSNLAKKALEEILRLAEELAKDPDPESLKAAVHCAEFVVRYQPGSNLAKKALEIILRAAEELAKLPDPEALKEAVKAAEKVVREQPGSELAKKALEIIERAAEELKKSPDPEAQKEAKKAEQKVREERPGSGGSGSHHWGSGSHHHHHH
notes: also called LHD317 B; LHD317B
On to B2, for which the binding result (with DFX; in data set [1]; with TF10) was “binds” throughout.

B3: DFB0 (designed binder)
chain: NTHFIVVHGSEDAAQLAEELVREISKKEGTEVRFEKKDGLLSIEVKNLSEERQREIQKALQLVQDVANAERVVRERPGSNLAKKALEIILRAAEELAKLDLKASLKAAVRAAEKVVREQPGSNLAKKALEIILRAAEELAKLPDPEALKEAVKAAEKVVREQPGSNLAKKALEIILRAAEELAKLPDPEALKEAVKAAEKVVREQPGSNLAKKALEIILRAAAALANLPDPESRKEADKAADKVRREQPGSELAVVAAIISAVARMGVKMELHPSGNEVKVVIKGLHIKQQRQLYRDVREAAKKAGVEVEIEVEGDTVTIVVRGGSHHWGSGSHHHHHH
notes: Bivalent connector
As for B3, in the data set with 101B62, the binding result is “binds”.

B4: 101B82 (designed binder)
chain: HHHHHHGSGLNDIFEAQKIEWHEAENLYFQSGSDEEVQEAVERAEELREEAEELIKKARKTGDAELLRKALEALEEAVRAVEEAIKRNPDNDEAVETAVRLARELKKVAEELQERAKKTGDAELLKLALRALEVAVRAVELAIKSNPDNDEAVETAVRLARELAKVAEELIERAKKTGDKELLKLAKRALEVAMRAVSLALKSNPDNEEARRVAAELVLLVIRAAVIEMGVTMEEHRSGNRVKVVIKGLHESQQEQLLEDVLRAAEIAGVRVRIRFKGDTVTIVVEG
Regarding B4, in the data set with DFA0, the binding result is on record as “binds”.

B5: DF206 (designed binder)
chain: NTHFIVVHGTEEARQLAEEIVRLIAEALGTEVRFEKKDGLLSIEVKNLPEEAQRLIQKLLQLAVRIAAAAESGDNDQLRELAEDALRLAEEAEKLGDLGAAAVAARLAVEAAKQAGDNDVLREVAEQALEIAKEAEKQGLVDVAVEAARVAVEAAKQAGDNDVLRKVAEQALRIAKEAEKQGNVEVAVKAARVAVEAAKQAGDNDVLRKVAEQALRIAKEAEKQGNVEVAALALVVAVNAAQAAGDQDLLRKIAEQAERLAKLAEKQGRRDVALLASIIALVAKMGVPMEVHPSGNEVKVVIKGLHKSQQEQLLKEVLKAANKLGVNVHISFRGDTVTIRVRGGGSHHWGSGSHHHHHH
notes: Bivalent connector
Regarding B5, the binding result with DF275A-1 is reported as “binds”.

B6: 206B62-2 (designed binder)
chain: HHHHHHGSGLNDIFEAQKIEWHEAENLYFQSGSNDEKRKRAEKALQRAQEAEKKGDVEEAVRAAQEAVRAAKESGDNDVLRKVAEQALRIAKEAEKQGNVEVAVKAARVAVEAAKQAGDNDVLRKVAEQALRIAKEAEKQGNVPVAVKALLVALNAAVAAGDQDVLRKISEQAERARKLAEKQGDKLLAFVLALISLVAQMGVPMEIHPSGNEVKVVIKGLHKSQQEQLLKLVLKLANKLGVNVHISFRGDTVTIRVRGGS
In the case of B6, in the data set with DF275A-1, the binding result is on record as “binds”.
